Laboratory results reported in patent US20180222961A1 (IMMATICS BIOTECHNOLOGIES, published 2018).

Legend:
HLA-A*01:01 = target: T1, HLA-A*01:01 (human); experiment: UV-exchange b2m ELISA; exchange-yield grade
T1 construct: also called peptide-receptive MHC molecules
Method in brief: (§1)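 Exchange yield assessed by anti-β2m ELISA of UV-exchanged peptide-MHC monomers; absorbance at 450 nm compared with monomer standard curve.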

[1] = target: T2, human recombinant HLA-B*08:01 and b2m (human); experiment: pMHC dissociation assay at 37 C; mean half-life grade
T2 construct: expressed in E. coli and purified; stability of the peptide-MHC complex read as b2m associated with the heavy chain over time at 37 C
Experimental: Peptide-MHC stability assays for HLA-B*08:01 peptides were performed. The data were obtained using a proximity based, homogenous, real-time assay in order to measure the dissociation of peptides from HLA class I molecules. First, human recombinant HLA-B*08:01 and b2m were expressed in E. coli and purified in a series of liquid chromatography based steps (Ferre et al., 2003; Ostergaard et al., 2001). Then, the stability of a peptide-MHC complex (pMHC) was determined by measuring the amount of b2m associated with the MHC heavy chain over time at 37° C. (Harndahl et al., 2012). The stability of each pMHC, expressed as the half life of b2m associated with the respective heavy chain, was calculated by fitting the data to a one-phase dissociation equation.

HLA-A*24:02 = target: T3, HLA-A*24:02 (human); experiment: UV-exchange b2m ELISA; exchange-yield grade
T3 construct: also called peptide-receptive MHC molecules
Method in brief: as §1

NVTMKVVSVLY
peptide exchange yield (HLA-A*01:01): 50 to 75%

LPRLKAFMI
mean half-life (T1/2) of peptide-MHC complex [1]: 4 to 6 h

MGSARVAEL
mean half-life (T1/2) of peptide-MHC complex [1]: 4 to 6 h

RYLAVVHAVF
peptide exchange yield (HLA-A*24:02): > 75%

HVKEKFLL
mean half-life (T1/2) of peptide-MHC complex [1]: 4 to 6 h

VYTPTLGTL
peptide exchange yield (HLA-A*24:02): > 75%

VYTFLSSTL
peptide exchange yield (HLA-A*24:02): > 75%

RYSDSVGRVSF
peptide exchange yield (HLA-A*24:02): > 75%

FYFPTPTVL
peptide exchange yield (HLA-A*24:02): > 75%

MYKMKKPI
mean half-life (T1/2) of peptide-MHC complex [1]: 2 to 4 h

ALKTTTTAL
mean half-life (T1/2) of peptide-MHC complex [1]: 2 to 4 h

LYQPRASEM
peptide exchange yield (HLA-A*24:02): 50 to 75%

SYSDLHYGF
peptide exchange yield (HLA-A*24:02): > 75%

ETIRSVGYY
peptide exchange yield (HLA-A*01:01): 50 to 75%

VMEQSAGIMY
peptide exchange yield (HLA-A*01:01): 20 to 50%

VYNHTTRPL
peptide exchange yield (HLA-A*24:02): > 75%

MLRKIAVAA
mean half-life (T1/2) of peptide-MHC complex [1]: 2 to 4 h

TVTGAEQIQY
peptide exchange yield (HLA-A*01:01): 20 to 50%

SLRLKNVQL
mean half-life (T1/2) of peptide-MHC complex [1]: 2 to 4 h

VLLPRLVSC
mean half-life (T1/2) of peptide-MHC complex [1]: 2 to 4 h

VLKHKLDEL
mean half-life (T1/2) of peptide-MHC complex [1]: 2 to 4 h

YPKARLAF
mean half-life (T1/2) of peptide-MHC complex [1]: 6 to 10 h

RYGPVFTV
peptide exchange yield (HLA-A*24:02): > 75%

QLDSNRLTY
peptide exchange yield (HLA-A*01:01): 50 to 75%

SPVTSVHGGTY
peptide exchange yield (HLA-A*01:01): 20 to 50%

VFVSFSSLF
peptide exchange yield (HLA-A*24:02): 50 to 75%

YLLEKSRVI
mean half-life (T1/2) of peptide-MHC complex [1]: 4 to 6 h

DMDEEIEAEY
peptide exchange yield (HLA-A*01:01): 20 to 50%

QAKTHSTL
mean half-life (T1/2) of peptide-MHC complex [1]: 2 to 4 h

SYFRGFTLI
peptide exchange yield (HLA-A*24:02): > 75%

FAFRKEAL
mean half-life (T1/2) of peptide-MHC complex [1]: 4 to 6 h

VLLDEGAMLLY
peptide exchange yield (HLA-A*01:01): 20 to 50%

MAAVKQAL
mean half-life (T1/2) of peptide-MHC complex [1]: 4 to 6 h

VYHDDKQPTF
peptide exchange yield (HLA-A*24:02): > 75%

KYEKIFEML
peptide exchange yield (HLA-A*24:02): > 75%

LPKLAGLL
mean half-life (T1/2) of peptide-MHC complex [1]: 2 to 4 h

RWEKTDLTY
peptide exchange yield (HLA-A*01:01): 20 to 50%

LLDEGAMLLY
peptide exchange yield (HLA-A*01:01): > 75%

KLKERNREL
mean half-life (T1/2) of peptide-MHC complex [1]: 6 to 10 h

TAYMVSVAAF
peptide exchange yield (HLA-A*24:02): 50 to 75%

QGLLRPVF
mean half-life (T1/2) of peptide-MHC complex [1]: 4 to 6 h

RFTTMLSTF
peptide exchange yield (HLA-A*24:02): > 75%

DVKKKIKEV
mean half-life (T1/2) of peptide-MHC complex [1]: 2 to 4 h

SIKTKSAEM
mean half-life (T1/2) of peptide-MHC complex [1]: 6 to 10 h

HLLLKVLAF
mean half-life (T1/2) of peptide-MHC complex [1]: 4 to 6 h

DMKYKNRV
mean half-life (T1/2) of peptide-MHC complex [1]: 2 to 4 h

SYNEHWNYL
peptide exchange yield (HLA-A*24:02): > 75%

KYVKVFHQF
peptide exchange yield (HLA-A*24:02): > 75%

FVDNQYWRY
peptide exchange yield (HLA-A*01:01): 50 to 75%

TPKLRETSI
mean half-life (T1/2) of peptide-MHC complex [1]: 4 to 6 h

NAMLRKVAV
mean half-life (T1/2) of peptide-MHC complex [1]: 2 to 4 h

TSMPRSSAM
mean half-life (T1/2) of peptide-MHC complex [1]: 6 to 10 h

SFAPRSAVF
peptide exchange yield (HLA-A*24:02): > 75%

EAMKRLSYI
mean half-life (T1/2) of peptide-MHC complex [1]: 2 to 4 h

IYSPQFSRL
peptide exchange yield (HLA-A*24:02): > 75%

TSHERLTTL
mean half-life (T1/2) of peptide-MHC complex [1]: 4 to 6 h

KYPVHIYRL
peptide exchange yield (HLA-A*24:02): > 75%

KYVAELSLL
peptide exchange yield (HLA-A*24:02): > 75%
